{"source": "paper PMC9482650", "about": "“Quantitative fragmentomics allow affinity mapping of interactomes” (Nature Communications, 2022)", "experiment_in_all_cases": "holdup assay", "parameters_in_all_cases": "key: below the threshold = too weak to quantify, mostly under pKd 3.1 to 4", "key": {"[1]": {"biological_target": "GORASP2, Q9H8Y8"}, "[2]": {"biological_target": "T1, DFNB31_2, Q9P202", "T1 sequence (Q9P202 274-371, limits assumed, looked up)": "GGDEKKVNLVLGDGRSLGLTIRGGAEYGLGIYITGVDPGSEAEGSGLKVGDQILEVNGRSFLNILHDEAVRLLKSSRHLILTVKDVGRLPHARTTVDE"}, "[3]": {"biological_target": "MAGI2_6, Q86UL8", "sequence (Q86UL8 1141-1229)": "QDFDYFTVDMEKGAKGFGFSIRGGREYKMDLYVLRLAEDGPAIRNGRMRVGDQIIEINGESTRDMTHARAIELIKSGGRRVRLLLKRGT"}, "[4]": {"biological_target": "T2, PARD3B_1, Q8TEW8", "T2 sequence (Q8TEW8 196-299, limits assumed, looked up)": "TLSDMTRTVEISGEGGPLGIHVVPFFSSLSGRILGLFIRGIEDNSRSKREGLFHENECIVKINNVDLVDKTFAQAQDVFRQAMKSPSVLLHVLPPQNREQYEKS"}, "[5]": {"biological_target": "MAGI1_1, Q96QZ7", "sequence (Q96QZ7 1-106)": "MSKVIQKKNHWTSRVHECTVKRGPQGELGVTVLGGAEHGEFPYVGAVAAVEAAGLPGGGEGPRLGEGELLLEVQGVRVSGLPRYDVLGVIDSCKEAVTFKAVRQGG"}, "[6]": {"biological_target": "IL16_3, Q14005", "sequence (Q14005 1107-1207)": "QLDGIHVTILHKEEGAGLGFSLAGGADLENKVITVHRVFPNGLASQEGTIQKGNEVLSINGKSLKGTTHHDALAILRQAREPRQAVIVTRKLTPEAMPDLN"}, "[7]": {"biological_target": "T3, APBA2_2, Q99767", "T3 sequence (Q99767 654-744, limits assumed, looked up)": "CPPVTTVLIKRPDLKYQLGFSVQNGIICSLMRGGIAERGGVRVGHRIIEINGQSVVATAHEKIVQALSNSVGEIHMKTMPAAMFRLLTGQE"}, "[8]": {"biological_target": "GRASP, Q7Z6J2", "sequence (Q7Z6J2 96-193)": "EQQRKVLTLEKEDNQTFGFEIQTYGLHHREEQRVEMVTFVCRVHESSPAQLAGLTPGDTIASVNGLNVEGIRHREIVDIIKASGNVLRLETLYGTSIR"}, "[9]": {"biological_target": "T4, HTRA4, P83105", "T4 sequence (P83105 378-476, limits assumed, looked up)": "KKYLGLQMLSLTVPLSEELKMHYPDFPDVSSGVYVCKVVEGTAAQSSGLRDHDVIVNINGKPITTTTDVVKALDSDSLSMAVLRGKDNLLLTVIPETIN"}, "[10]": {"biological_target": "LNX1_2, Q8TBB1", "sequence (Q8TBB1 371-470)": "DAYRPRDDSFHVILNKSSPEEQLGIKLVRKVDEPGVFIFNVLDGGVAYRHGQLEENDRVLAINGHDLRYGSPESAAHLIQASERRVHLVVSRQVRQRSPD"}, "[11]": {"biological_target": "DLG2_2, Q15700", "sequence (Q15700 189-283)": "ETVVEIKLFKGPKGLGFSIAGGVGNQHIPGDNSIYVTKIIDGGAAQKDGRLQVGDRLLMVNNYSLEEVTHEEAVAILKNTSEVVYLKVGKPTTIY"}, "[12]": {"biological_target": "T5, APBA1_1, Q02410", "T5 sequence (Q02410 651-752, limits assumed, looked up)": "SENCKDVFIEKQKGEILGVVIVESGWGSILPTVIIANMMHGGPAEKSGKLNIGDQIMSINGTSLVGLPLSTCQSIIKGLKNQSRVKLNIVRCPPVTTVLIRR"}, "[13]": {"biological_target": "T6, DFNB31_3, Q9P202", "T6 sequence (Q9P202 811-907, limits assumed, looked up)": "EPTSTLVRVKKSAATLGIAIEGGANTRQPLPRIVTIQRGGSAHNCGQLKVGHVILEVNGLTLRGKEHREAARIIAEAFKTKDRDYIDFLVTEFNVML"}, "[14]": {"biological_target": "T7, FRMPD1, Q5SYB0", "T7 sequence (Q5SYB0 52-145, limits assumed, looked up)": "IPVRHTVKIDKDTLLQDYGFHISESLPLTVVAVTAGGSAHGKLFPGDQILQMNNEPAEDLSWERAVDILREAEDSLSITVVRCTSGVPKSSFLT"}, "[15]": {"biological_target": "GRIP2_7, Q9C0E4", "sequence (Q9C0E4 934-1023)": "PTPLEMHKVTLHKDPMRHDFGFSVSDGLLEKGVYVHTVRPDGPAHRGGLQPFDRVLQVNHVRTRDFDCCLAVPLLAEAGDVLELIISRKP"}, "[16]": {"biological_target": "T8, LIN7A, O14910", "T8 sequence (O14910 103-200, limits assumed, looked up)": "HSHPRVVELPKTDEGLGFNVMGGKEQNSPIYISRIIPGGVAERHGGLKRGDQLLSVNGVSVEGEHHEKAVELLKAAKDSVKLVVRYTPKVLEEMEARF"}, "[17]": {"biological_target": "HTRA1, Q92743", "sequence (Q92743 360-477)": "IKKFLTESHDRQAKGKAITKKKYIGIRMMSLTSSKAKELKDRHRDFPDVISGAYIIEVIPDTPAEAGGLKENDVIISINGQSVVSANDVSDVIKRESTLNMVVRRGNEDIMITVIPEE"}, "[18]": {"biological_target": "SCRIB_1, Q14160", "sequence (Q14160 718-814)": "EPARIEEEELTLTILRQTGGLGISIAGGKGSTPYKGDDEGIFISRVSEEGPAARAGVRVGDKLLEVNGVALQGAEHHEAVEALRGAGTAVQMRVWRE"}, "[19]": {"biological_target": "T9, GRIP1_2, Q9Y3R0", "T9 sequence (Q9Y3R0 145-248, limits assumed, looked up)": "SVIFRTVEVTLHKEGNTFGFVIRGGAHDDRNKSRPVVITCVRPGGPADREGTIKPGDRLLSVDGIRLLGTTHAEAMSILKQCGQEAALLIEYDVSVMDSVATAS"}, "[20]": {"biological_target": "T10, MPP2, Q14168", "T10 sequence (Q14168 180-250, limits assumed, looked up)": "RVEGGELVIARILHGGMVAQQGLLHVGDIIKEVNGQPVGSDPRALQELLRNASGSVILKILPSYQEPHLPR"}, "[21]": {"biological_target": "T11, DLG3_1, Q92796", "T11 sequence (Q92796 125-227, limits assumed, looked up)": "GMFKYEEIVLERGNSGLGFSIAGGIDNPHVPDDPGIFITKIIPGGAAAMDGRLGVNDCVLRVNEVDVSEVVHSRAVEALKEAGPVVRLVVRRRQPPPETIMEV"}, "[22]": {"biological_target": "MAGI2_4, Q86UL8", "sequence (Q86UL8 772-865)": "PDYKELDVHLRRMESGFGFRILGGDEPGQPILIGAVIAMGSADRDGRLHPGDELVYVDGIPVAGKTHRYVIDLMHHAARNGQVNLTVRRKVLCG"}, "[23]": {"biological_target": "T12, SNTA1, Q13424", "T12 sequence (Q13424 82-180, limits assumed, looked up)": "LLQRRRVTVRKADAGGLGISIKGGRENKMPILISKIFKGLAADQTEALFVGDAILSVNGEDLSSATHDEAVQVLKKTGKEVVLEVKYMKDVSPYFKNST"}, "[24]": {"biological_target": "MAST2, Q6P0Q8", "sequence (Q6P0Q8 1099-1202)": "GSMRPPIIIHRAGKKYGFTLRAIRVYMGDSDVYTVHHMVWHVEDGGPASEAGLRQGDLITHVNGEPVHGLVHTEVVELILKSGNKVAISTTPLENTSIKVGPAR"}, "[25]": {"biological_target": "FRMPD4, Q14CM0", "sequence (Q14CM0 67-160)": "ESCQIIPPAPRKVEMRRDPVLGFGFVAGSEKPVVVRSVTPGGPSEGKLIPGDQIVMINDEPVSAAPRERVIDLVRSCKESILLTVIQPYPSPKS"}, "[26]": {"conditions": "plain residues with an end cap or a label only (N-terminal biotin on a linker: ttds)"}, "[27]": {"conditions": "plain residues with an end cap or a label only (N-terminal biotin on a linker: ado-ado)"}}, "data": [{"binder": "HIVEALETDV", "note": "[PBK, Q96KB5]", "values": [{"measurement": "pKd", "setting": "[1]; [26]", "value": "below the threshold"}, {"measurement": "pKd", "setting": "[2]; [26]", "value": "below the threshold"}, {"measurement": "pKd", "setting": "[3]; [26]", "value": 5.35}, {"measurement": "pKd", "setting": "[4]; [26]", "value": "below the threshold"}, {"measurement": "pKd", "setting": "[5]; [26]", "value": "below the threshold"}, {"measurement": "pKd", "setting": "[6]; [26]", "value": "below the threshold"}, {"measurement": "pKd", "setting": "[7]; [26]", "value": "below the threshold"}, {"measurement": "pKd", "setting": "[8]; [26]", "value": "below the threshold"}, {"measurement": "pKd", "setting": "[9]; [26]", "value": "below the threshold"}, {"measurement": "pKd", "setting": "[10]; [26]", "value": "below the threshold"}, {"measurement": "pKd", "setting": "[11]; [26]", "value": 5.28}, {"measurement": "pKd", "setting": "[12]; [26]", "value": "below the threshold"}, {"measurement": "pKd", "setting": "[13]; [26]", "value": "below the threshold"}, {"measurement": "pKd", "setting": "[14]; [26]", "value": "below the threshold"}, {"measurement": "pKd", "setting": "[15]; [26]", "value": 3.91}, {"measurement": "pKd", "setting": "[16]; [26]", "value": "below the threshold"}, {"measurement": "pKd", "setting": "[17]; [26]", "value": "below the threshold"}, {"measurement": "pKd", "setting": "[18]; [26]", "value": 5.32}, {"measurement": "pKd", "setting": "[19]; [26]", "value": "below the threshold"}, {"measurement": "pKd", "setting": "[20]; [26]", "value": "below the threshold"}, {"measurement": "pKd", "setting": "[21]; [26]", "value": 4.67}, {"measurement": "pKd", "setting": "[22]; [26]", "value": 4.4}, {"measurement": "pKd", "setting": "[23]; [26]", "value": 5.28}, {"measurement": "pKd", "setting": "[24]; [26]", "value": 5.71}, {"measurement": "pKd", "setting": "[25]; [26]", "value": "below the threshold"}]}, {"binder": "SVVSERISSV", "note": "[HTR2C, P28335]", "values": [{"measurement": "pKd", "setting": "[1]; [27]", "value": 3.89}, {"measurement": "pKd", "setting": "[2]; [27]", "value": "below the threshold"}, {"measurement": "pKd", "setting": "[3]; [27]", "value": 4.64}, {"measurement": "pKd", "setting": "[4]; [27]", "value": "below the threshold"}, {"measurement": "pKd", "setting": "[5]; [27]", "value": "below the threshold"}, {"measurement": "pKd", "setting": "[6]; [27]", "value": "below the threshold"}, {"measurement": "pKd", "setting": "[7]; [27]", "value": "below the threshold"}, {"measurement": "pKd", "setting": "[8]; [27]", "value": 4.55}, {"measurement": "pKd", "setting": "[9]; [27]", "value": "below the threshold"}, {"measurement": "pKd", "setting": "[10]; [27]", "value": "below the threshold"}, {"measurement": "pKd", "setting": "[11]; [27]", "value": 4.4}, {"measurement": "pKd", "setting": "[12]; [27]", "value": "below the threshold"}, {"measurement": "pKd", "setting": "[13]; [27]", "value": 3.76}, {"measurement": "pKd", "setting": "[14]; [27]", "value": "below the threshold"}, {"measurement": "pKd", "setting": "[15]; [27]", "value": "below the threshold"}, {"measurement": "pKd", "setting": "[16]; [27]", "value": "below the threshold"}, {"measurement": "pKd", "setting": "[17]; [27]", "value": 4.18}, {"measurement": "pKd", "setting": "[18]; [27]", "value": "below the threshold"}, {"measurement": "pKd", "setting": "[19]; [27]", "value": "below the threshold"}, {"measurement": "pKd", "setting": "[20]; [27]", "value": "below the threshold"}, {"measurement": "pKd", "setting": "[21]; [27]", "value": "below the threshold"}, {"measurement": "pKd", "setting": "[22]; [27]", "value": "below the threshold"}, {"measurement": "pKd", "setting": "[23]; [27]", "value": 4.59}, {"measurement": "pKd", "setting": "[24]; [27]", "value": 4.78}, {"measurement": "pKd", "setting": "[25]; [27]", "value": "below the threshold"}]}, {"binder": "SPLHSLETSL", "note": "[ATP2B1, P20020]", "values": [{"measurement": "pKd", "setting": "[1]; [26]", "value": "below the threshold"}, {"measurement": "pKd", "setting": "[2]; [26]", "value": "below the threshold"}, {"measurement": "pKd", "setting": "[3]; [26]", "value": 4.24}, {"measurement": "pKd", "setting": "[4]; [26]", "value": 4.02}, {"measurement": "pKd", "setting": "[5]; [26]", "value": "below the threshold"}, {"measurement": "pKd", "setting": "[6]; [26]", "value": "below the threshold"}, {"measurement": "pKd", "setting": "[7]; [26]", "value": "below the threshold"}, {"measurement": "pKd", "setting": "[8]; [26]", "value": 4.22}, {"measurement": "pKd", "setting": "[9]; [26]", "value": 3.48}, {"measurement": "pKd", "setting": "[10]; [26]", "value": "below the threshold"}, {"measurement": "pKd", "setting": "[11]; [26]", "value": 4.18}, {"measurement": "pKd", "setting": "[12]; [26]", "value": "below the threshold"}, {"measurement": "pKd", "setting": "[13]; [26]", "value": "below the threshold"}, {"measurement": "pKd", "setting": "[14]; [26]", "value": "below the threshold"}, {"measurement": "pKd", "setting": "[15]; [26]", "value": "below the threshold"}, {"measurement": "pKd", "setting": "[16]; [26]", "value": "below the threshold"}, {"measurement": "pKd", "setting": "[17]; [26]", "value": 3.75}, {"measurement": "pKd", "setting": "[18]; [26]", "value": 5.36}, {"measurement": "pKd", "setting": "[19]; [26]", "value": "below the threshold"}, {"measurement": "pKd", "setting": "[20]; [26]", "value": "below the threshold"}, {"measurement": "pKd", "setting": "[21]; [26]", "value": 3.62}, {"measurement": "pKd", "setting": "[22]; [26]", "value": 3.48}, {"measurement": "pKd", "setting": "[23]; [26]", "value": 4.5}, {"measurement": "pKd", "setting": "[24]; [26]", "value": 5.88}, {"measurement": "pKd", "setting": "[25]; [26]", "value": 4.45}]}]}
